# Measured values: US20160244497A1 (Amgen, published 2016)
# Where two headings read alike, the source gives them in different places.
# B1: wild-type FGF21 (mature, un-PEGylated) (ligand)
# chain: MHPIPDSSPLLQFGGQVRQRYLYTDDAQQTEAHLEIREDGTVGGAADQSPESLLQLKALKPGVIQILGVKTSRFLCQRPDGALYGSLHFDPEACSFRELLLEDGYNVYQSEAHGLPLHLPGNKSPHRDPAPRGPARFLPLPGLPPAPPEPPGILAPQPPDVGSSDPLSMVGPSQGRSPSYAS
# Legend:
# Test in all cases: cell-based or functional assay
# [1] = biological target: beta-klotho
# [2] = biological target: beta-klotho; remark: listed apart in the source
# [3] = biological target: beta-klotho; remark: listed apart in the source
binder,measurement,setting,value
B1,"EC50, ELK-luciferase assay",[1],3 nM
same,"EC50, ELK-luciferase assay",[2],0.63 nM
same,"In Vitro Activity EC50, ELK-luciferase assay",[3],3 nM
